Reference: article PMC4344526

Experiments:
[1] = system: Csy complex (Csy1-4 + crRNA, Type I-F) (Pseudomonas aeruginosa PA14); assay: EMSA; settings: EMSA: 20 mM HEPES pH 7.5, 100 mM KCl, 5% glycerol, 1 mM TCEP, 2 mM EDTA, 37 C, 15 min (competition 5 min), SPR: 20 mM HEPES pH 7.5, 100 mM KCl, 0.02%
[2] = system: Csy complex (Csy1-4 + crRNA, Type I-F) (Pseudomonas aeruginosa PA14); assay: SPR; settings: ka 1.9e7 M-1 s-1, half-life 6.3 s, same as non-target, EMSA Kd >2 orders higher, EMSA: 20 mM HEPES pH 7.5, 100 mM KCl, 5% glycerol, 1 mM TCEP, 2 mM EDTA, 37 C, 15 min (competition 5 min), SPR: 20 mM HEPES pH 7.5, 100 mM KCl, 0.02%

Substance dsDNA target, 7-deazaguanine PAM has a binding signal (fold increase in Kd vs N1) ([1]; both PAM guanines replaced by 7-deazaguanine) of 120.

For dsDNA target, protospacer + G-C/G-C PAM, the Kd [1] was 1 nM.

With ssDNA target, protospacer + GG PAM the Kd [1] was 0.5 nM.

dsDNA target, inosine PAM gave a binding signal (fold increase in Kd vs N1) ([1]; both PAM guanines replaced by inosine) greater than 1000.

“dsDNA target, protospacer + T-A/T-A PAM (SPR)” gave a Kd [2] of 6 nM.

With “dsDNA target, T-A/T-A PAM, duplexed (EMSA)” the binding signal (fold weaker vs N1) [1] was 100.
